According to patent publication US20250333441A1, “POLYPEPTIDE INHIBITORS AND USES THEREOF” (Neuracle Science Co., Ltd., priority 2021, published 2025):

Columns and labels:
[1] = molecular target: binding of FAM19A5 protein to full-length ectodomain of the LRRC4B protein (amino acids 36-576)-hFc (Homo sapiens, UniProt Q7Z5A7); experiment: Competitive inhibition assay, plate coated with full-length LRRC4B ectodomain; details: 100 nM coated ectodomain; FAM19A5 5 ng/mL; increasing concentrations
Protocol: Next, to further assess the role that the binding domain of the LRRC4B protein has on the interaction between FAM19A5 protein and members of the LRRC4 protein family, a competitive inhibition assay was used to determine whether different LRRC4B deletion constructs from Example 2 could inhibit the binding of FAM19A5 to the full-length ectodomain of the LRRC4B protein (i.e., amino acids 36-576 of SEQ ID NO: 2; SEQ ID NO: 5). Briefly, 100 nM of the full-length ectodomain of the LRRC4B protein was used to coat a plate, and then recombinant FAM19A5 protein (5 ng/mL) was added to the plate in combination with the following LRRC4B deletion constructs (increasing concentrations): (1) LRRC4B (453-576) (i.e., construct #11 in Table 6); (2) LRRC4B (453-576) mutant (comprises alanine substitutions at positions 488 and 489 of SEQ ID NO: 2; SEQ ID NO: 16); (3) LRRC4B (484-576) (i.e., construct #12 in Table 6); (4) LRRC4B (482-576); (5) LRRC4B (482-497); and (6) LRRC4B (498-576). The plates were incubated at 37° C., and then, the amount of FAM19A5 bound to the coated LRRC4B ectodomain protein was measured using H1RP-conjugated anti-FAM19A5 (1-65) antibody. […]

FAM19A5 protein [2] = molecular target: T1, FAM19A5 protein (Homo sapiens, UniProt Q7Z5A7); experiment: Co-immunoprecipitation of FLAG-tagged LRRC4 family constructs with recombinant FAM19A5 in HEK293 cells; type: binding; details: HEK293 cells expressing FLAG-tagged construct, recombinant FAM19A5 protein (1 μM) 30 minutes; anti-FLAG immunoprecipitation
T1 sequence (Q7Z5A7 44-132): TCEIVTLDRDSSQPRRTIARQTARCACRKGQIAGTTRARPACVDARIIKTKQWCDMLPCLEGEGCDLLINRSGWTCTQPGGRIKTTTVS
Protocol: To better understand the interaction between FAM19A5 and members of the LRRC4 protein family, HEK293 cells were modified to express a FLAG-tagged member of the LRRC4 protein family, i.e., LRRC4C protein, LRRC4 protein, or LRRC4B protein. Then, the HEK293 cells or primary cortical neurons were treated with recombinant FAM19A5 protein (1 μM) for 30 minutes, and the binding between FAM19A5 protein and the different members of the LRRC4 protein family was assessed using both co-immunoprecipitation and immunofluorescence assays.
For the co-immunoprecipitation assay, cell lysates from the different FAM19A5-treated HEK293 cells were collected and immunoprecipitated with an anti-FLAG antibody, anti-FAM19A5 (1-65) antibody, or a human IgG antibody (control). Immunoprecipitated proteins were immunoblotted with anti-FLAG and anti-FAM19A5 (3-2) antibodies. For the immunofluorescence assay, the HEK293 cells treated with the recombinant FAM19A5 protein were immunostained with anti-FAM19A5 (3-2) (to detect FAM19A5 protein expression) and anti-FLAG antibodies (to detect member of the LRRC4 protein family). The primary cortical neurons treated with the recombinant FAM19A5 protein were immunostained with anti-FAM19A5 (3-2) and anti-LRRC4B antibodies. The nuclei were stained with Hoechst33342 (blue).
To determine the specific motif or domain of the LRRC4B protein that is responsible for the binding to a FAM19A5 protein, various FLAG-tagged LRRC4B deletion constructs were generated (see Table 6 below). HEK293 cells were transfected with the different deletion constructs and then treated with recombinant FAM19A5 protein as described in Example 1. Then, the cell lysates from the different HEK293 cells were immunoprecipitated with the anti-FLAG antibody. The immunoprecipitated proteins were immunoblotted with anti-FLAG and anti-FAM19A5 (3-2) antibodies.
As described in Example 2, all members of the LRRC4 protein family were capable of binding to FAM19A5 protein to varying degrees. Therefore, to compare the bindings domains, the amino acid sequences of the LRRC4B, LRRC4, and LRRC4C proteins were aligned. […] Therefore, to assess whether the corresponding positions of LRRC4 and LRRC4C were important in the binding of these proteins to FAM19A5 protein, cDNAs encoding either (i) LRRC4C protein fragment (amino acids 354-527 of SEQ ID NO: 3; SEQ ID NO: 66) or (ii) LRRC4 protein fragment (amino acids 353-527 of SEQ ID NO: 1; SEQ ID NO: 67) were constructed (see Table 7). HEK293 cells were transfected to express either of the protein fragments and then treated with recombinant FAM19A5 protein as described in Example 1. Then, the cell lysates from the different HEK293 cells were immunoprecipitated with the anti-FLAG antibody. The immunoprecipitated proteins were immunoblotted with anti-FLAG and anti-FAM19A5 (3-2) antibodies.

FAM19A5 protein [3] = molecular target: T1, FAM19A5 protein; experiment: ELISA binding of recombinant FAM19A5 to coated LRRC4 family ectodomains, fragments and FB peptides; details: coated protein or peptide, FAM19A5 up to 10 nM
Protocol: Next, to confirm the above co-immunoprecipitation results, an ELISA assay was used to measure the binding of the FAM19A5 protein to either the full-length ectodomain of members of LRRC4 protein family or various LRRC4B ectodomain protein fragments. Specifically, an ELISA plate was coated with one of the following LRRC4B ectodomain protein, which was conjugated to human Fc (100 nM/well): (1) full-length ectodomain of LRRC4 protein (amino acid residues 39-527 of SEQ ID NO: 1) (SEQ ID NO: 4); (2) full-length ectodomain of LRRC4B protein (amino acids 36-576 of SEQ ID NO: 2; i.e., construct #7 in Table 6) (SEQ ID NO: 5); (3) full-length ectodomain of LRRC4C protein (amino acids 45-527 of SEQ ID NO: 3) (SEQ ID NO: 6); (4) LRRC4B ectodomain fragment (amino acids 453-576 of SEQ ID NO: 2; i.e., construct #11 in Table 6) (SEQ ID NO: 7); (5) LRRC4B ectodomain fragment (amino acids 484-576 of SEQ ID NO: 2; i.e., construct #12 in Table 6) (SEQ ID NO: 8); (6) LRRC4B ectodomain fragment (amino acids 482-576 of SEQ ID NO: 2) (SEQ ID NO: 9); (7) LRRC4B ectodomain fragment (amino acids 482-497 of SEQ ID NO: 2) (SEQ ID NO: 10); and (8) LRRC4B ectodomain fragment (amino acids 498-576 of SEQ ID NO: 2; i.e., construct #13 in Table 6) (SEQ ID NO: 11). Then, recombinant FAM19A5 proteins (0.005, 0.01, 0.025, 0.05, 0.1, 0.25, 0.5, 1, 2.5, 5, and 10 nM) were added to the relevant wells, and the plates were incubated at 37° C. for 1 hour. Afterwards, the amount of LRRC4B-bound FAM19A5 protein was detected using […] anti-FAM19A5 (1-65) antibody.
As further confirmation, three synthetic polypeptides comprising amino acids 484-497 of SEQ ID NO: 2 (i.e., YTYFTTVTVETLET; SEQ ID NO: 65) were constructed: (1) FB-16 (GYTYFTTVTVETLETQ; SEQ ID NO: 17), (2) FB-20 ([…]; SEQ ID NO: 18), and (3) FB-28 ([…]; SEQ ID NO: 19). The peptides differed in their total length. The ability of these polypeptides to bind to recombinant FAM19A5 protein was assessed using an ELISA assay as described above.

Chain of binding of FAM19A5 protein to full-length ectodomain of the LRRC4B protein (amino acids 36-576)-hFc (Q7Z5A7 44-132): as above

LRRC4B (482-497): LRRC4B ectodomain fragment, amino acids 482-497 of SEQ ID NO: 2 (SEQ ID NO: 10) (GGYTYFTTVTVETLET; left off: a dimerising Fc or GST)
inhibition of FAM19A5 binding to coated full-length LRRC4B ectodomain protein [1]: able to inhibit the interaction

B1: LRRC4B (364-576): LRRC4B deletion construct, amino acids 364-576 of SEQ ID NO: 2 (SEQ ID NO: 61) (protein)
chain: PVIVEPPTDLNVTEGMAAELKCRTGTSMTSVNWLTPNGTLMTHGSYRVRISVLHDGTLNFTNVTVQDTGQYTCMVTNSAGNTTASATLNVSAVDPVAAGGTGSGGGGPGGSGGVGGGSGGYTYFTTVTVETLETQPGEEALQPRGTEKEPPGPTTDGVWGGGRPGDAAGPASSSTTAPAPRSSRPTEKAFTVPITDVTENALKDLDDVMKTTK
binding to FAM19A5 protein (co-immunoprecipitation) (FAM19A5 protein [2]): able to bind to the FAM19A5 protein

B2: LRRC4B (36-576): full-length ectodomain of LRRC4B protein, amino acids 36-576 of SEQ ID NO: 2 (SEQ ID NO: 5) (protein)
chain: AGGGGVAVTSAAGGGSPPATSCPVACSCSNQASRVICTRRDLAEVPASIPVNTRYLNLQENGIQVIRTDTFKHLRHLEILQLSKNLVRKIEVGAFNGLPSLNTLELFDNRLTTVPTQAFEYLSKLRELWLRNNPIESIPSYAFNRVPSLRRLDLGELKRLEYISEAAFEGLVNLRYLNLGMCNLKDIPNLTALVRLEELELSGNRLDLIRPGSFQGLTSLRKLWLMHAQVATIERNAFDDLKSLEELNLSHNNLMSLPHDLFTPLHRLERVHLNHNPWHCNCDVLWLSWWLKETVPSNTTCCARCHAPAGLKGRYIGELDQSHFTCYAPVIVEPPTDLNVTEGMAAELKCRTGTSMTSVNWLTPNGTLMTHGSYRVRISVLHDGTLNFTNVTVQDTGQYTCMVTNSAGNTTASATLNVSAVDPVAAGGTGSGGGGPGGSGGVGGGSGGYTYFTTVTVETLETQPGEEALQPRGTEKEPPGPTTDGVWGGGRPGDAAGPASSSTTAPAPRSSRPTEKAFTVPITDVTENALKDLDDVMKTTK
binding to FAM19A5 protein (co-immunoprecipitation) (FAM19A5 protein [2]): able to bind to the FAM19A5 protein

B3: LRRC4B (453-713): FLAG-tagged LRRC4B deletion construct, amino acids 453-713 of SEQ ID NO: 2 (SEQ ID NO: 56) (protein)
chain: VSAVDPVAAGGTGSGGGGPGGSGGVGGGSGGYTYFTTVTVETLETQPGEEALQPRGTEKEPPGPTTDGVWGGGRPGDAAGPASSSTTAPAPRSSRPTEKAFTVPITDVTENALKDLDDVMKTTKIIIGCFVAITFMAAVMLVAFYKLRKQHQLHKHHGPTRTVEIINVEDELPAASAVSVAAAAAVASGGGVGGDSHLALPALERDHLNHHHYVAAAFKAHYSSNPSGGGCGGKGPPGLNSIHEPLLFKSGSKENVQETQI
modifications: FLAG tag
binding to FAM19A5 protein (co-immunoprecipitation) (FAM19A5 protein [2]): able to bind to the FAM19A5 protein

B4: LRRC4B (498-576): LRRC4B fragment, amino acids 498-576 of SEQ ID NO: 2 (SEQ ID NO: 11) (protein)
chain: QPGEEALQPRGTEKEPPGPTTDGVWGGGRPGDAAGPASSSTTAPAPRSSRPTEKAFTVPITDVTENALKDLDDVMKTTK
inhibition of FAM19A5 binding to coated full-length LRRC4B ectodomain protein [1]: much inferior in their ability to inhibit the interaction | binding to FAM19A5 protein (ELISA) (FAM19A5 protein [3]): failed to bind to FAM19A5

B5: LRRC4B (364-713): FLAG-tagged LRRC4B deletion construct, amino acids 364-713 of SEQ ID NO: 2 (SEQ ID NO: 55) (protein)
chain: PVIVEPPTDLNVTEGMAAELKCRTGTSMTSVNWLTPNGTLMTHGSYRVRISVLHDGTLNFTNVTVQDTGQYTCMVTNSAGNTTASATLNVSAVDPVAAGGTGSGGGGPGGSGGVGGGSGGYTYFTTVTVETLETQPGEEALQPRGTEKEPPGPTTDGVWGGGRPGDAAGPASSSTTAPAPRSSRPTEKAFTVPITDVTENALKDLDDVMKTTKIIIGCFVAITFMAAVMLVAFYKLRKQHQLHKHHGPTRTVEIINVEDELPAASAVSVAAAAAVASGGGVGGDSHLALPALERDHLNHHHYVAAAFKAHYSSNPSGGGCGGKGPPGLNSIHEPLLFKSGSKENVQETQI
modifications: FLAG tag
binding to FAM19A5 protein (co-immunoprecipitation) (FAM19A5 protein [2]): able to bind to the FAM19A5 protein

B6: LRRC4B (482-576): LRRC4B ectodomain fragment, amino acids 482-576 of SEQ ID NO: 2 (SEQ ID NO: 9) (protein)
chain: GGYTYFTTVTVETLETQPGEEALQPRGTEKEPPGPTTDGVWGGGRPGDAAGPASSSTTAPAPRSSRPTEKAFTVPITDVTENALKDLDDVMKTTK
inhibition of FAM19A5 binding to coated full-length LRRC4B ectodomain protein [1]: able to inhibit the interaction
